The results in this text go back to paper PMC5389554 (Nucleic Acids Research, 2017).

The data set “non-reducing SDS-PAGE” deals with the molecule itself. The data set can be described thus: non-reducing SDS-PAGE.
Data set [1] concerns the molecule itself. The data set can be described thus: non-reducing SDS-PAGE with immunoblot.
The data set “cross-linking” deals with the molecule itself. The data set can be described thus: cross-linking.

B1: GST-CNBP (recombinant cellular nucleic acid-binding protein with GST tag) (natural protein, mouse, UniProt P53996 1-178, looked up)
chain: MSSNECFKCGRSGHWARECPTGGGRGRGMRSRGRGGFTSDRGFQFVSSSLPDICYRCGESGHLAKDCDLQEDEACYNCGRGGHIAKDCKEPKREREQCCYNCGKPGHLARDCDHADEQKCYSCGEFGHIQKDCTKVKCYRCGETGHVAINCSKTSEVNCYRCGESGHLARECTIEATA
Regarding B1, in the data set “non-reducing SDS-PAGE”, the “stoichiometry N” value was 2.

B2: CNBP-HA (wild type) (natural protein, mouse, UniProt P53996 1-178, looked up)
chain: MSSNECFKCGRSGHWARECPTGGGRGRGMRSRGRGGFTSDRGFQFVSSSLPDICYRCGESGHLAKDCDLQEDEACYNCGRGGHIAKDCKEPKREREQCCYNCGKPGHLARDCDHADEQKCYSCGEFGHIQKDCTKVKCYRCGETGHVAINCSKTSEVNCYRCGESGHLARECTIEATA
B2: in data set [1], the “stoichiometry N” value was found to be 2.

B3: endogenous CNBP (cellular nucleic acid-binding protein) (natural protein, mouse (endogenous in RAW 264.7), UniProt P53996 1-178, looked up)
chain: MSSNECFKCGRSGHWARECPTGGGRGRGMRSRGRGGFTSDRGFQFVSSSLPDICYRCGESGHLAKDCDLQEDEACYNCGRGGHIAKDCKEPKREREQCCYNCGKPGHLARDCDHADEQKCYSCGEFGHIQKDCTKVKCYRCGETGHVAINCSKTSEVNCYRCGESGHLARECTIEATA
B3: the “stoichiometry N” value in the data set “cross-linking” is 2.
